The target of assay [1] is T1, GEF-H1S (Homo sapiens, UniProt Q92974, INS962GETLAETWTR).
T1 sequence (Q92974 with tags, fused parts or gaps): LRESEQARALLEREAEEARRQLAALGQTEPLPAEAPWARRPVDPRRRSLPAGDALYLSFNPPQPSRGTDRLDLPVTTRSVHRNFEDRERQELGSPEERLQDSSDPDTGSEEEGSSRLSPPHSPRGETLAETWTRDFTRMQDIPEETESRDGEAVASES
In words: Pull-down of GEF-H1 with PAK4 domains and biotinylated PAK4 peptides. In kind it is binding. The following applies: PAK4 domain expressed in 293T lysate; GST-GEF-H1S (aa763-921) on glutathione beads. The protocol: (§1) FIG. 1: (SEQ ID NOs 32-34 respectively in order of appearance) Direct binding of GEF-H1 to PAK4. Lysates were prepared from 293T cells over expressing (a) myc tagged PAK4 alleles or subdomains and incubated with GST, GST-GEF-H1 (787-921) and GST-Maguin-like bound to Glutathione beads (1,2,3,4 bead designation) or (b) GFP-GEF-H1 and incubated with PAK4 biotinylated peptides (291-355) and (276-324) linked to streptavidin beads. An equivalent amount of beads and excess lysates (500 ug) were used. Eluates of beads and total lysates were analysed by SDS-PAGE and immunoblotted with myc or GEF-H1 antiserum; (c) represents a PAK4 gene schematic outlining the regions of PAK4 used to identify the GEF-H1 interaction domain (GID). d, alignment of the GID defined by the minimal binding region of PAK4 with PAK5 and PAK6.
(§2) To confirm the in vitro interaction of GEF-H1S with PAK4, bacterially expressed GST-fusion proteins were generated with the identical sequences isolated by phage display, encoding either amino acids 763-921 of GEF-H1S or amino acids 385-555 from the Maguin-2-like protein. These fusion proteins were bound to glutathione beads and utilized in binding assays with 293T lysates expressing exogenous PAK4.
(§3) Biotinylated peptides derived from the N-terminal region of PAK4 sequence were used to further map the GEF-H1 binding site. […]

The target of assay [2] is T2, GEF-H1S (Homo sapiens, UniProt Q92974, INS962GETLAETWTR).
T2 sequence (Q92974 with tags, fused parts or gaps): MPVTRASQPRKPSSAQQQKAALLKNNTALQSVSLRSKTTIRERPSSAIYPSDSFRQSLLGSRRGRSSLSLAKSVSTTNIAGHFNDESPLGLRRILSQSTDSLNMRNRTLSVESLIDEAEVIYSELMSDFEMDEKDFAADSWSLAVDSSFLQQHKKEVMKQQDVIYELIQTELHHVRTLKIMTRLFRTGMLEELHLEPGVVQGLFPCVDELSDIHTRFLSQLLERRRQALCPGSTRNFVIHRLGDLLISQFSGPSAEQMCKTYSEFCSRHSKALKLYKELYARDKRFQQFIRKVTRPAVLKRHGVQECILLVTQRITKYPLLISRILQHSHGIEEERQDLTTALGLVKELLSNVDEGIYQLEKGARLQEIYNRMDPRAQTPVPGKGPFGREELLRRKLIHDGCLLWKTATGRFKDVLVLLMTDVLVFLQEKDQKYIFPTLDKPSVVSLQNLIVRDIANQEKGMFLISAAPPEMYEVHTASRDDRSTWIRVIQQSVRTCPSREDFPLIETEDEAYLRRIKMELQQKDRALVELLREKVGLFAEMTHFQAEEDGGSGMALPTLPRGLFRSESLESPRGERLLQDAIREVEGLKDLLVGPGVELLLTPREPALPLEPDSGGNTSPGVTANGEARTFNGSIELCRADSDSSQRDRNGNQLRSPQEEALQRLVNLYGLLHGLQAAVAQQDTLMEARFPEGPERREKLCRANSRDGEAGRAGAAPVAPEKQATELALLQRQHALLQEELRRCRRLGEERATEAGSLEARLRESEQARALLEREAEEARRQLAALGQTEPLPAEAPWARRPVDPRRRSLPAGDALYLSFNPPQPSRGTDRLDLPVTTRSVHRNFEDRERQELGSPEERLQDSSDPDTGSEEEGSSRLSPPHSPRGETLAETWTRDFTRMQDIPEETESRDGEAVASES
The description is as above. As to conditions: biotinylated PAK4 peptides linked to streptavidin beads. In kind it is binding. The protocol: as §1, §2, §3

Assay [3] has as its system GEF-H1S. In words: Co-transfection of GEF-H1S and PAK4 alleles, Western blot with phospho-specific GEF-H1 antibodies. In kind it is cell-based, human. The protocol: To confirm that GEF-H1S phosphorylation by PAK4 occurs at these sites in vivo, co-transfection assays were performed and analyzed phosphorylation of GEF-H1 by use of a phospho-specific antibody directed against phospho-serine 810. This antibody is specific for GEF-H1 that is phosphorylated on Ser 810. […] Expression of the kinase-dead PAK4 is also able to inhibit endogenous PAK4 basal phosphorylation of GEF-H1S on Ser 810.
In this experiment GEF-H1S expression vector was pRSV/Rc and the PAK4 expression vector was pcDNA. Lysates were prepared from the transfected 293T cells and analyzed by Western Blot using the anti-1009 reagent. […] These phosphospecific antibodies can be used to detect PAK4 activity in tumors by virtue of its specific phosphorylation of GEF-H1.

Setting [4] is: co-expression with GEF-H1S in mammalian (293T) cells, anti-1009 Western blot, relative to basal phosphorylation.

Substitutions are numbered along the chain they refer to. Names and notes keep the numbering of the source.

B1: amino acids 1-309: amino-terminal regulatory domain of PAK4 alone (protein, UniProt O96013 1-309, looked up, fragment)
chain: MFGKRKKRVEISAPSNFEHRVHTGFDQHEQKFTGLPRQWQSLIEESARRPKPLVDPACITSIQPGAPKTIVRGSKGAKDGALTLLLDEFENMSVTRSNSLRRDSPPPPARARQENGMPEEPATTARGGPGKAGSRGRFAGHSEAGGGSGDRRRAGPEKRPKSSREGSGGPQESSRDKRPLSGPDVGTPQPAGLASGAKLAAGRPFNTYPRADTDHPSRGAQGEPHDVAPNGPSAGGLAIPQSSSSSSRPPTRARGAPSPGVLGPHASEPQLAPPACTPAAPAVPGPPGPRSPQREPQRVSHEQFRAALQ
Turning to B1, the “interaction with GEF-H1S” value in the assay with GEF-H1S [1] is recorded as “did not stably interact”.

B2: amino acids 291-355: biotinylated PAK4 peptide covering a more C-terminal region (peptide, UniProt O96013 291-355, looked up, fragment)
chain: SPQREPQRVSHEQFRAALQLVVDPGDPRSYLDNFIKIGEGSTGIVCIATVRSSGKLVAVKKMDLR
modifications: biotin
notes: biotinylated PAK4 peptide covering a more C-terminal region
For B2, the “interaction with GEF-H1S” value in the assay with GEF-H1S [2] was “did not”.

B3: S474E: activated PAK4 mutant (protein)
chain: MFGKRKKRVEISAPSNFEHRVHTGFDQHEQKFTGLPRQWQSLIEESARRPKPLVDPACITSIQPGAPKTIVRGSKGAKDGALTLLLDEFENMSVTRSNSLRRDSPPPPARARQENGMPEEPATTARGGPGKAGSRGRFAGHSEAGGGSGDRRRAGPEKRPKSSREGSGGPQESSRDKRPLSGPDVGTPQPAGLASGAKLAAGRPFNTYPRADTDHPSRGAQGEPHDVAPNGPSAGGLAIPQSSSSSSRPPTRARGAPSPGVLGPHASEPQLAPPACTPAAPAVPGPPGPRSPQREPQRVSHEQFRAALQLVVDPGDPRSYLDNFIKIGEGSTGIVCIATVRSSGKLVAVKKMDLRKQQRRELLFNEVVIMRDYQHENVVEMYNSYLVGDELWVVMEFLEGGALTDIVTHTRMNEEQIAAVCLAVLQALSVLHAQGVIHRDIKSDSILLTHDGRVKLSDFGFCAQVSKEVPRRKELVGTPYWMAPELISRLPYGPEVDIWSLGIMVIEMVDGEPPYFNEPPLKAMKMIRDNLPPRLKNLHKVSPSLKGFLDRLLVRDPAQRATAAELLKHPFLAKAGPPASIVPLMRQNRTR
On to B3, for which the “phosphorylation of GEF-H1S on Ser 810” value in the assay with GEF-H1S [3] (setting [4]) is reported as “marked increase”; in the assay on GEF-H1S [3] (co-expression with GEF-H1S in mammalian (293T) cells, anti-1009 Western blot, relative to basal phosphorylation, listed as activated PAK4) it was “enhanced”. For the same molecule, the “phosphorylation of GEF-H1S on Ser 67” value in the assay on GEF-H1S [3] (co-transfection with GEF-H1S, phospho-specific antibodies against Ser 67) is “stimulated phosphorylation”.

B4: PAK4 kinase dead K350,351A: kinase inactive PAK4 mutant (protein, UniProt O96013 1-591, looked up, variant K350A K351A)
Serine/threonine-protein …: B3 chain with K350A, K351A, E474S
For the molecule B4, the “phosphorylation of GEF-H1S on Ser 810” value was “marked decrease” in the assay with GEF-H1S [3] (setting [4]) and “inhibit” in the assay with GEF-H1S [3] (co-expression with GEF-H1S in mammalian (293T) cells, anti-1009 Western blot, relative to basal phosphorylation, listed as kinase-dead PAK4).

B5: wild type PAK4 (1-591): wild type p-21-activated kinase 4 expressed from pcDNA (protein)
chain: B3 chain with E474S
As for B5, the figures for the “phosphorylation of GEF-H1S on Ser 810” value with GEF-H1S [3] (co-expressed with Cdc42) and with GEF-H1S [3] (setting [4]) were “enhanced” and “marked increase”, respectively.

The values are drawn from US7439329B2, “GEF-H1b: biomarkers, complexes assays and therapeutic uses thereof” (Sugen, Inc., priority 2002, dated 2008).
